Where a chain is given by its changes, count along the chain named. In names and notes the source's numbering stands. Read-outs that look alike come from different tables or passages of the source.
B1: Cst-MnP1 (Cyathus striatus) (protein)
chain: VTCPDGHVTANRACCALFPVVQNLQENLFDGGECGEEAHSALRLSFHDAIGFSLNSNKGGGADGSILLFNATELTFHANGGIDDITSRQFPVFETTGLTPGDFVHLAGAVGTANCPGAPRLQFMFGRPPPIAPAPDLTVPEPTDDVDAILARFADAGFDASEVVALLSSHTIAAADVVDVTIPGTPFDSTVGTFDTQVFLEVLLAGRSFPGNGSQPGEVLSPLAGEMRLQSDFVVSRDSRTACLWQAMVNNQQLMVSSFAAAMAKLQVLGQNVNTMVDCSDVIPEPAPFAGPIKFPASFSMADVEQACASTFPQIQTVAGPAPTVAPVPGS
B2: Cst-MnP1 (Cyathus striatus; E36A) (protein)
chain: B1 chain with E36A
B3: Cst-MnP1 (Cyathus striatus; S40A) (protein)
chain: B1 chain with S40A
B4: Ape-MnP1 (Agrocybe pediades) (protein)
chain: TICADGTSVANGACCKLIPVVKDLTENLFEGECGDAAHGALRLVFHDAIAISPTLGGGGADGSIAVFNATELTFHANTGIDDVLDAVGPFLLKHSDVMTPGDFIQLAGAVSLTQCNGAPRVKFVMGRPPPKAAAPNLLVPEPFDSVATILQRFGELGFTKEETVAVIGGSHSVAGADDIVPNEQGIPFDQTPSIFDTQIFVDVQLRGTMIPGNGTTEGEVETAVPGTVRLQSDHLLARDASTSCIWQSFVNQQSKMAQVFGEAIFKMSLLGQTQSKLIDCSEVIPRAIPFSHGPATLPPGQTLKDIEQACAASPFPTLSTQPGPVTSVPAIPQADDS

Assays:
Ape-MnP1 [1] = assay: steady-state oxidation, coerulignone formation at […] nm; assay type: biochemical, Agrocybe pediades; conditions: 0.3 mM H2O2, 100 mM sodium tartrate, optimal pH, 25 °C; read-out: Ape-MnP1 Q333P
Ape-MnP1 [2] = conditions: read-out: Ape-MnP1 Q333P; 0.3 mM H2O2, 100 mM sodium tartrate, optimal pH, 25 °C
purified protein [3] = substrate: CCn1c(=NN=c2sc3cc(S(=O)(=O)O)ccc3n2CC)sc2cc(S(=O)(=O)O)ccc21; assay: purified protein; assay type: biochemical, Cyathus striatus; conditions: 0.3 mM H2O2, 100 mM sodium tartrate, optimal pH, 25 °C
purified protein [4] = substrate: COc1cccc(OC)c1O; assay: purified protein; assay type: biochemical, Cyathus striatus; conditions: 0.3 mM H2O2, 100 mM sodium tartrate, optimal pH, 25 °C
purified protein [5] = substrate: CCn1c(=NN=c2sc3cc(S(=O)(=O)O)ccc3n2CC)sc2cc(S(=O)(=O)O)ccc21; assay: purified protein; assay type: biochemical, Agrocybe pediades; conditions: 0.3 mM H2O2, 100 mM sodium tartrate, optimal pH, 25 °C
purified protein [6] = substrate: COc1cccc(OC)c1O; assay: purified protein; assay type: biochemical, Agrocybe pediades; conditions: 0.3 mM H2O2, 100 mM sodium tartrate, optimal pH, 25 °C

| Molecule | Km (purified protein [3]) [µM] | kcat (purified protein [3]) [s⁻¹] | kcat/Km (purified protein [3]) [s⁻¹ mM⁻¹] | Km (purified protein [4]) [mM] | kcat (purified protein [4]) [s⁻¹] | kcat/Km (purified protein [4]) [s⁻¹ mM⁻¹] | other results |
| --- | --- | --- | --- | --- | --- | --- | --- |
| COc1cccc(OC)c1O [DMP] | – | – | – | – | – | – | Km (Ape-MnP1 [1]): 2.9 ± 0.59 mM |
| CCn1c(=NN=c2sc3cc(S(=O)(=O)O)ccc3n2CC)sc2cc(S(=O)(=O)O)ccc21 [ABTS] | – | – | – | – | – | – | Km (Ape-MnP1 [2]): 1.89 ± 0.25 mM |
| B1 | 3250 ± 220 | 60 ± 1.4 | 18 ± 1.3 | 4.65 ± 0.56 | 4.2 ± 0.2 | 0.98 ± 0.12 | – |
| B2 | 1900 ± 455 | 67 ± 18 | 35.5 ± 12.8 | 2.12 ± 0.5 | 2.62 ± 0.17 | 1.24 ± 0.30 | – |
| B3 | 2990 ± 455 | 112 ± 4.6 | 37.5 ± 5.9 | – | – | – | – |
| B4 | – | – | – | – | – | – | Km (purified protein [5]): 2730 ± 280 µM; kcat (purified protein [5]): 146 ± 6 s⁻¹; kcat/Km (purified protein [5]): 53 ± 6 s⁻¹ mM⁻¹; Km (purified protein [6]): 2880 ± 490 µM; kcat (purified protein [6]): 11.5 ± 0.8 s⁻¹; kcat/Km (purified protein [6]): 4.2 ± 0.5 s⁻¹ mM⁻¹ |

From paper PMC11144326, “Structure–function characterization of two enzymes from novel subfamilies of manganese peroxidases secreted by the lignocellulose-degrading Agaricales fungi Agrocybe pediades and Cyathus striatus” (Biotechnology for Biofuels and Bioproducts, 2024)
